Target: T1, vipoxin basic and toxic phospholipase A2 subunit (Vipera ammodytes meridionalis, UniProt P14420 1-122)
T1 sequence: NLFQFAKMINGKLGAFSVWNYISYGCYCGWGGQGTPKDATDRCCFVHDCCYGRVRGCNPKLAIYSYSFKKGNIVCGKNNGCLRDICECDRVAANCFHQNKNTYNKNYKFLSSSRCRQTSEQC
Experiment: cell-based or functional assay

B1: vipoxin's acidic component (natural protein)
chain: NLFQFGDMILQKTGKEAVHSYAIYGCYCGWGGQGRAQDATDRCCFAQDCCYGRVNDCNPKTATYTYSFENGDIVCGDNDLCLRAVCECDRAAAICLGENVNTYDKNYEYYSISHCTEESEQC
In the case of B1, the “residual PLA2 enzyme activity (NOBA substrate) of reconstituted complex PLA2 + VAC (1:1 molar ratio), pre-incubation 1 min to 24 h (100, 120, 115, 114, 114, 113, 108, 78 %)” value is reported as 120%.

Source: PMC3600519, “Acute toxicity of vipoxin and its components: is the acidic component an “inhibitor” of PLA2 toxicity?” (Interdisciplinary Toxicology, 2012)
